Here are results for 41 sequences from the nanobody polyreactivity screen of Harvey et al. (2022).

The series is described as follows: yeast display, Sf9 membrane polyspecificity reagent, FACS + sequencing; frameworks hold sequencing errors. The essentials: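 Nanobodies came from a synthetic yeast display library in Saccharomyces cerevisiae BJ5465, induced with galactose for 36–48 hours and stained for 1 hour at 4 °C with 10% biotinylated, detergent-solubilized Sf9 membrane reagent. Cells were enriched on streptavidin microbeads and then FACS-sorted, with low and high (top ~1%) gates set on anti-HA fluorescence for expression and streptavidin fluorescence for reagent binding. Each polyreactivity label reflects the gate a clone came from. Genes were amplified by colony PCR, sequenced by MiSeq 2 × 250 and filtered by CDR length.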
Take “QVQLVESGGGLVQAGGSLRLSCAASGLTSRPYVMGWYRQAPGKERDLVAAISQTGGRTYYADSVKGRFTISRDNAKNTVYLQMNSLKPEDTAVYDCAAKYSNGSGFDYWGQGTQVTVSS”: the “polyreactivity (PSR sort gate)” value is “high polyreactivity”.

“QVQLVESGGGLVQAGGSLRLSCAASGLTSVTYAMGWYRQAPGKERELVAAITSRAGSTYYADSVKGRFTISRDNAKNTVYLQMNSLKPEDTAVYYCAKDIIRKVYAGYVGRYDYWGQGTQVTVSS”: the “polyreactivity (PSR sort gate)” value was “low polyreactivity”.

As for “QVQLVESGGGLVQAGGSLRLSCAASGLTSYDYGMGWYRPAPGIERELVAAITWSGGSTYYADSVKGRFTISRDNAKNTVYLQMNSLKPEDTAVYYCAADTWGYGWYGYWGHGTQVTVSS”, the “polyreactivity (PSR sort gate)” value is “low polyreactivity”.

On to “QVQLVESGGGLVQAGGSLRLSCAASGLTVNRYALGWYRQAPGKERELVASIRWSGGSTYYADSVKGRFTISRDNAKNTVYLQMNSLKPEDTAVYYCAKSIASAAYDSWGQGTQVTVSS”, for which the “polyreactivity (PSR sort gate)” value is “low polyreactivity”.

Consider “QVQLVESGGGLVQAGGSLRLSCAASGLTVYYYAMGWYRQAPGKERELVASISRSGGSTYYADSVKGSFTISRDNAKNTVYLQMNSLKPEDTAVYYCNVSVYRCTVKGTFDMDHWGQGTQVTVSW”, for which the “polyreactivity (PSR sort gate)” value is “high polyreactivity”.

As to “QVQLVESGGGLVQAGGSLRLSCAASGLTYAYNAMGGSRQAPGKERELVAAISKRGGSTYYADSVKGRFTISRDNAKNTVYLQMNSLKPEDTAVYYCAAGTYAIHDYWGLGTQVTVSS”, the “polyreactivity (PSR sort gate)” value is given as “high polyreactivity”.

As to “QVQLVESGGGLVQAGGSLRLSCAASGLTYSNAMGWYRQAPVKERELVAAISWRGGRTYYADSVKGRFTISRDNAKNTVYLQMNSLKPEDTAVYYCAKYAHGHKWYGYWGQGTQVTVSS”, the “polyreactivity (PSR sort gate)” value is listed as “low polyreactivity”.

“QVQLVESGGGLVQAGGSLRLSCAASGMIFKFYDMGWYRQAPGKEREWVASISWSGGRTYYADSVKGRFTISRDNAKNTVYLQMNSLKPEDTAVYYCAAGRYYGYGYWGQGTQVTVSS”: the “polyreactivity (PSR sort gate)” value is listed as “high polyreactivity”.

As for “QVQLVESGGGLVQAGGSLRLSCAASGMTFDYYAMGWYRQAPGKERELVAAIRSGGSTNYADSVKGRFTISRDNAKNTVYLQMNSLKPEDTAVYYCAAVRYFPWYDYWGQGTQVTVSS”, the “polyreactivity (PSR sort gate)” value is “high polyreactivity”.

With “QVQLVESGGGLVQAGGSLRLSCAASGMTFTKNVMGWYRQAPGKEWELVAVISRSGGSTYYADSVKGRFTISRDNAKNTVYLQMNSLKPEDTAVYYCTVKGPGPSRGNYWGQVTQVTVSS”, the “polyreactivity (PSR sort gate)” value was “low polyreactivity”.

With “QVQLVESGGGLVQAGGSLRLSCAASGMTFTSNVLGWYRQAHGKERELVAAISSGGSTYDADSVKGRFTMSRDNAKNTVYLQMNSLKPEDTAVYYCNSKLWGQYDYWGQGTQVTVSS”, the “polyreactivity (PSR sort gate)” value was “low polyreactivity”.

Consider “QVQLVESGGGLVQAGGSLRLSCAASGMTFWSYAMGWYRQAPGKDRELVAAITIGGTTYYADSVKGRFTISRDNAKNTVYLQMNSLKPEDTAVYYCAVDSTDQAPPTYDYWGQGTQVTVSS”, for which the “polyreactivity (PSR sort gate)” value is reported as “low polyreactivity”.

Consider “QVQLVESGGGLVQAGGSLRLSCAASGMTLGSYAMGWDRQAPGKERELVAAISRRSGRTYYADSVKGRFTISRDNAKNTVYLKMNSLKPEDTAVFYCNRGYTAQVYTEFDDWGQGTQVTVSS”, for which the “polyreactivity (PSR sort gate)” value is recorded as “low polyreactivity”.

Take “QVQLVESGGGLVQAGGSLRLSCAASGNIFADYVMGWYRQAPGKERELVAAIDKSGGRTYYADSVKGRFTISRDNEKNNVYLQMNILKPEDTAVYYCSAYDRYRRMDYWGQGTQVTVSS”: the “polyreactivity (PSR sort gate)” value was “high polyreactivity”.

On to “QVQLVESGGGLVQAGGSLRLSCAASGNIFAFYAMGWYRQAPGKERELVADISWSGASTYYADSVKGRFTISRDNAKNTVYLQMNSLKPEDTAVYYCAAYATYYVIFYGDEYWGQGTQVTVSS”, for which the “polyreactivity (PSR sort gate)” value is reported as “high polyreactivity”.

As for “QVQLVESGGGLVQAGGSLRLSCAASGNIFAINAMGWYRQAPGKERELVAAITWSSARTYYADSVKGRFTISRDNAKNTVYLQMNSLKPEDTAVYYCNAPALFEYDYWGQGTQVTVSS”, the “polyreactivity (PSR sort gate)” value is reported as “high polyreactivity”.

In the case of “QVQLVESGGGLVQAGGSLRLSCAASGNIFAWYAMGWYRQAPGKERELVADISSRGGSTYYADSVKGRFTISRDNAKNTVYLQMNSLKPEDTAVYYCAAVWYWTQDYDYWGRGTQVTVSS”, the “polyreactivity (PSR sort gate)” value is reported as “low polyreactivity”.

Turning to “QVQLVESGGGLVQAGGSLRLSCAASGNIFDAYGMGWNRQAPGKETELVAAIDWTGGSTYYADSVKGRFTISRDNAKNTVYLQMNSLKPEDTAVYYCAADWGGGYQQYGNDWVNYWGQGTQVTVSS”, the “polyreactivity (PSR sort gate)” value was “low polyreactivity”.

“QVQLVESGGGLVQAGGSLRLSCAASGNIFDHYAMGWYRQAPGKERELVASITDSGDSTSYADSVKGRFTISRDNAKNTVYLQMNSLKPEDTAVYYCAADPYSVYGGDYWGQGTQVTVSS”: the “polyreactivity (PSR sort gate)” value is recorded as “low polyreactivity”.

With “QVQLVESGGGLVQAGGSLRLSCAASGNIFDLYARGWSRQAPGKERELVAAISASGGRTYYADSVKGRFTISRDNAKNTVYLQMNSLKPEDTAVYYCAAVASYGTDFYYWGQGTQVTVSS”, the “polyreactivity (PSR sort gate)” value is recorded as “high polyreactivity”.

On to “QVQLVESGGGLVQAGGSLRLSCAASGNIFDRYVMGWYRQAPGKERELVAAISVSGGSTYYADSVKGRFTISRDNAKNTVYLQMNSLKPEDTAVYYCAAHSRLINWYDYWGQGTQVTVSS”, for which the “polyreactivity (PSR sort gate)” value is recorded as “high polyreactivity”.

As for “QVQLVESGGGLVQAGGSLRLSCAASGNIFDVYAMGWYRQAPGKERELVAAISRSGSSTYYADSVKGRFTISRDNAKNTVYLQMNSLKQEDTAVYYCAAKISLGQRTYYYWGQGTQVTVSS”, the “polyreactivity (PSR sort gate)” value is reported as “high polyreactivity”.

Turning to “QVQLVESGGGLVQAGGSLRLSCAASGNIFESYGMGGYRQAPGKERELVAAISFSGDSTYYADSVKGRFTISRDNAKNSVYLQMNSLKPEDTAVYYCATDVGYVYGYYYWGQGTQVTVSS”, the “polyreactivity (PSR sort gate)” value is “low polyreactivity”.

In the case of “QVQLVESGGGLVQAGGSLRLSCAASGNIFEYYAMGWYRKAPGKERELVATITSGGSTNYADSVKGRFTISRDNAKNTVYLQMNSLKPEDTAVYYCNADIISVSVYYFIVEYDYWGQGTQVTVSS”, the “polyreactivity (PSR sort gate)” value is listed as “low polyreactivity”.

With “QVQLVESGGGLVQAGGSLRLSCAASGNIFFSNAMGWYRQAPGKERELVASISQSGGSTYYADSVKGRFTISRDNAKNTVYLQMNSLKPEDTAVYYCAATQVRRGPAWGRDYWGQGTQVTVSS”, the “polyreactivity (PSR sort gate)” value is “low polyreactivity”.

In the case of “QVQLVESGGGLVQAGGSLRLSCAASGNIFGQNAMGWYRQAPGKERELVAAISSNGGRTYYADSVKGRFTISRDNAKNTVYLQMNSLKPEDTAVYYCAAEAVYAYEWYYYWGQGTQVTVSS”, the “polyreactivity (PSR sort gate)” value is reported as “high polyreactivity”.

“QVQLVESGGGLVQAGGSLRLSCAASGNIFKGHVMGSYRKAPGKERELVAAISRSGGYTYYAVSVKGRFTISRDNAKNTVYLQMNSLKPADTAVYYCAAGRRLVRVVGGDYYGRYVYWGQGTQVTLSS”: the “polyreactivity (PSR sort gate)” value was “high polyreactivity”.

Regarding “QVQLVESGGGLVQAGGSLRLSCAASGNIFLDYAMGWYRQAPGKEREWVAAITSGGSTNYADSVKGRFTISRDNAKNTVYLQMNSLKPEDTAVYYCNKDVWDGYDWPEFDYWGQGTQVTVSS”, the “polyreactivity (PSR sort gate)” value is “low polyreactivity”.

In the case of “QVQLVESGGGLVQAGGSLRLSCAASGNIFLRYAMGWYRQAPGKERELVAAISYSGGGSTYYADSVKGRFTISRDNAKNTVYLQMNSLKPEDTAVYYCAKVLTSRTQFFDYDYWGQGTQVTVSS”, the “polyreactivity (PSR sort gate)” value is on record as “low polyreactivity”.

Take “QVQLVESGGGLVQAGGSLRLSCAASGNIFLYYAMGWSRQAPGKERELVADIDSSGASTYYADSVKGRFTISRDNAKNTVYLQMNSLKPEDTAVYYCAAEFHWWYAGYDYGYWGQGTQVTVSS”: the “polyreactivity (PSR sort gate)” value is reported as “low polyreactivity”.

For “QVQLVESGGGLVQAGGSLRLSCAASGNIFLYYAMGWYRQAPGKERELVARIDSGGSTYYADSVKGRFTISRDNAKNTVYLQMNSLKPEDTAVYYCATDEGTVGGQQLRPLMDYWGQGTQVTVSS”, the “polyreactivity (PSR sort gate)” value is “low polyreactivity”.

For the sequence “QVQLVESGGGLVQAGGSLRLSCAASGNIFNTNARGWYRQAPGKDTELVAAISWNTGSTYADSVKGRFTISRDNAKKTVDLPMNSLKPEDTAVYYCAADRSHAYYRKNRVDYWGQGTQVTVSS”, the “polyreactivity (PSR sort gate)” value is on record as “low polyreactivity”.

In the case of “QVQLVESGGGLVQAGGSLRLSCAASGNIFPDYAMGWYRQAPGKERELVAAISTSGSSTYYADSVKGRFTISRDNAKNNDYLQMNSLKPEDTAVYYCNAYRNADYVYWGQGTQVTVSS”, the “polyreactivity (PSR sort gate)” value was “low polyreactivity”.

“QVQLVESGGGLVQAGGSLRLSCAASGNIFPRYAMGLYRQAPGKERELVAAITWRTSSTYYADSVKGRFTISRDNAKNTVYLQMNSLKPEDTAVYFCAKTSSRIAGEYWGQGTQVTVSS”: the “polyreactivity (PSR sort gate)” value was “low polyreactivity”.

On to “QVQLVESGGGLVQAGGSLRLSCAASGNIFPYNAMGWYRQAPGKERELVASISSGGSTNYADSVKGRFTISRDNAKNTVYLQMNSLKPEDTAVYYCAKDQSVLSRGGTYDYWGQGTQVTVSS”, for which the “polyreactivity (PSR sort gate)” value is reported as “low polyreactivity”.

Take “QVQLVESGGGLVQAGGSLRLSCAASGNIFQAYAMGWSRQAPGKERELVATIRTYADYVKGRFTISRDNAKNTVYLQMNSLKPEDTAVYYCAAQNAMYYDSYSGYDSWGQGTQVTVSS”: the “polyreactivity (PSR sort gate)” value is on record as “low polyreactivity”.

“QVQLVESGGGLVQAGGSLRLSCAASGNIFRINAMGWYRQAPGKERELVAAISRSVGSTYADSVKGRFTISRDNAKNTVYLQMNSLKPEDTAVYYCNARGRTQQRWVDYWGQGTQVTVSS”: the “polyreactivity (PSR sort gate)” value was “high polyreactivity”.

In the case of “QVQLVESGGGLVQAGGSLRLSCAASGNIFRPYTMGWYRQAPGKERELVARISSGGSTNYADSVKGRFTISRDNGKYTDYFQLNSLKPEVTAVYYWSKRYGTVLSRYGYLGQGTQVTVSS”, the “polyreactivity (PSR sort gate)” value was “high polyreactivity”.

“QVQLVESGGGLVQAGGSLRLSCAASGNIFSDNTMGWYRQAPGKERELVAVITSGTSTSYADSVKGRFTISRDNAKNTEYFQMNSLKPEDTAVSYAARTGQYKTYGEYDYWGQGTQVTVSS”: the “polyreactivity (PSR sort gate)” value is “low polyreactivity”.

“QVQLVESGGGLVQAGGSLRLSCAASGNIFSFYTMGWYRQAPGKERELVAAISWSGTSTYYADSVKGRFTISRDNAKNTVYLQMNSLKPEDTAVYYCAAVRRISRYDYWGQGTQVTVSS”: the “polyreactivity (PSR sort gate)” value was “high polyreactivity”.

Regarding “QVQLVESGGGLVQAGGSLRLSCAASGNIFSINAMGWYRQAPGKERELVAAISWSGGSTYYADSVKGRFTISRDNAKNTVYLQMNSLKPEDTAVYYCAADVYYLGYYEYYYWGQGTQVTVSS”, the “polyreactivity (PSR sort gate)” value was “high polyreactivity”.
